Laboratory results from publication doi:10.1101/2023.12.11.571162, “Single molecule studies of the native hair cell mechanosensory transduction complex” (bioRxiv, 2023).

Tests used:
[1] = molecular target: the molecule itself; test: single molecule pull-down (SiMPull), photobleaching step counting; native complexes from mouse cochlea supernatant captured by mAb 8D1; labelled with 39G7 Fab-GFP or anti-LHFPL5 Fab-GFP; bleaching steps counted
[2] = molecular target: the molecule itself; test: single molecule pull-down (SiMPull), photobleaching step counting; purified recombinant PCDH15/LHFPL5 complex captured by mAb 8D1; labelled in separate experiments with 39G7 Fab-GFP or anti-LHFPL5 Fab-GFP; bleaching steps counted

B1: native protocadherin-15 (PCDH15) from mouse cochlea or utricle (natural protein)
chain: not shown
notes: protocadherin-15, mouse, endogenous in cochlea and utricle; also called native PCDH15; source: endogenous, cochlea or utricle of post-natal day 6 mice, detergent supernatant (1% C12M, 0.2% CHS)
[1]
  stoichiometry N: 2

B2: recombinant protocadherin-15 (PCDH15), Mus musculus, His-tagged construct co-expressed with LHFPL5 (natural protein)
chain: not shown
notes: Synthesised by Genscript, cloned into pEG BacMam; also called recombinant PCDH15; His-tagged PCDH15; source: HEK293 tsa201 cells, BacMam co-infection with LHFPL5, purified as a complex (Strep-Tactin, TALON, SEC) in digitonin
[2]
  stoichiometry N: 2
